One experiment concerns the target Fc-cyno-MASP-2-CCS (human; cynomolgus monkey, UniProt P01857 119-329 = IgG part). Briefly: ELISA, plate coated with 1 ug/mL Fc-cyno-MASP-2-CCS. Here is the method: The titer was tested by ELISA: an ELISA plate was coated with the Fc-hMASP-2A-CCS or Fc-hMASP-2-CCS antigen at a concentration of 1 μg/mL, 100 μL per well, and coated overnight at 4° C. The plate was washed twice with PBST (PBS containing 0.5% Tween-20) and then pat-dried. Each well was blocked with 200 μL of coating solution containing 1% BSA, blocked at room temperature for 4 hours, pat-dried, and stored in a refrigerator at −20° C. for use. During testing, 100 μL of mouse serum at different concentrations was added to each well of the ELISA plate, with two replicate wells for each concentration, and the plate was incubated at room temperature for 1.5 hours. The plate was washed three times with PBST and then pat-dried. 100 μL of HRP-labeled rabbit anti-mouse Ig antibody (purchased from Sigma) diluted with PBST by 1:10000 was added, and the plate was incubated at room temperature for 1 hour. The plate was washed three times with PBST and then pat-dried. 100 μL of chromogenic solution was added to each well (ELISA chromogenic solution A was mixed with chromogenic solution B at a volume ratio of 1:1 before use) for a chromogenic reaction, and then 100 μL of 2 M H₂SO₄ stopping solution was added to each well to terminate the reaction. The OD value of each well was immediately measured at 450 nm with a microplate reader (Molecular Device).
Murine anti-human MASP-2 monoclonal antibodies were purified by a Protein G affinity chromatography column, and then quantified by BCA method. The EC50 of anti-human MASP-2 monoclonal antibody binding to Fc-hMASP-2A-CCS or Fc-cyno-MASP-2-CCS was tested by ELISA. The testing method can refer to Example 2. A 96-well ELISA plate was coated with 1 μg/mL of Fc-hMASP-2A-CCS or Fc-cyno-MASP-2-CCS, and then added with murine anti-human MASP-2 monoclonal antibodies at different concentrations for testing.

Experiment [1] addresses T1, human MASP-2 of human serum (human, UniProt O00187 16-686). Briefly: cell-based or functional assay.
Experiment [2] has as its target T1, human MASP-2 of human serum. Description: cell-based or functional assay. The source holds these as a separate data set.
Experiment [3] shares this target. Briefly: cell-based or functional assay. The source holds these as a separate data set.
The target of experiment [4] is cynomolgus monkey MASP-2 of cynomolgus monkey serum (cynomolgus monkey). Description: cell-based or functional assay.

Positions count from the first letter of the chain named.

T1 sequence (O00187 16-686 limits assumed): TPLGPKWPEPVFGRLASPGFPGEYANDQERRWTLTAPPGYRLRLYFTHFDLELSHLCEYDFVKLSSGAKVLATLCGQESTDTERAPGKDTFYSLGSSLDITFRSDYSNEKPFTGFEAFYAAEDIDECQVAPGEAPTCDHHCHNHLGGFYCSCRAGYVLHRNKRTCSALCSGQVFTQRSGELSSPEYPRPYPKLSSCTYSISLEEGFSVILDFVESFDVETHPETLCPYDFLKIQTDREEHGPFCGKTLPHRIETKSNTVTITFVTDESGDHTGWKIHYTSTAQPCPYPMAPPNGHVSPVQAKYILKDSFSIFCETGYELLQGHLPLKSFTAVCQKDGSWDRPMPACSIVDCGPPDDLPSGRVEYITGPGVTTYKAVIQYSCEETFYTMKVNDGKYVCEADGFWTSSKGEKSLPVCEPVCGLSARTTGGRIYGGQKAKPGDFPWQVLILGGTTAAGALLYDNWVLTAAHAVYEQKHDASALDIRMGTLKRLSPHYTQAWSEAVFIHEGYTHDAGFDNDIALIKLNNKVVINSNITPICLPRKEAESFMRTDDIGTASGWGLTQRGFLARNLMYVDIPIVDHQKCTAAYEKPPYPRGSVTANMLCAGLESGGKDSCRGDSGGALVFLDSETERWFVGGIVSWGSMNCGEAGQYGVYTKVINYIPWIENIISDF

B1: murine anti-human MASP-2 monoclonal antibody 60 (antibody, V domains shown)
VH: QVQLQQSGAELMKPGASVKISCKATGYPFSTYWIEWVKQRPGHGLEWIGEILPGSDNTNYNEKFKGKATFTADTSSNTAYMQLSSLTSEDSAVYYCARRTTATRAWFVYWGQGTLVTVSA
VL: DIVMSQSPSSLAVSVGEKVTMSCKSSQSLLYSSNQKNYLAWYQQKPGQSPKLLIYWASTRESGVPDRFTGSGSGTDFTLTISSVRAEDLAVYYCQHYYTYPWTFGGGTNLEIK
notes: Murine monoclonal antibody purified from hybridoma by Protein G
Consider B1, for which a half-maximal response in the experiment with Fc-cyno-MASP-2-CCS (EC50) required 96 pM. In experiment [1], the “IC50 of inhibition of MASP-2-catalyzed C4 cleavage (4% human serum, C4b ELISA)” value (“IC50 of inhibition … (4% human serum, C4b ELISA)” for short) was determined as 161 pM.

B2: murine anti-human MASP-2 monoclonal antibody 120 (antibody, V domains shown)
VH: DVQLQESGPGLVKPSQSLSLTCTVTGYSITSDYAWSWIRQFLRNKLEWMGYISYSGRTSYNPSLKSRISITRDTSKNQFFLQLNSVTTEDTATYFCARLITGGDYWGQGTSVTVSS
VL: DIVMTQSQKFMSTSVGDRVSVTCKASQNVGINVVWYQQKPGQSPKALIYSASYRFSGVPDRFTGSGSGTDFTLTISNVQSEDLAEYLCLQYDINPLTFGAGTKLELK
notes: as for B1
Regarding B2, the EC50 with Fc-cyno-MASP-2-CCS was found to be 160 pM. Moreover, in experiment [1], the “IC50 of inhibition … (4% human serum, C4b ELISA)” value amounted to 275 pM.

B3: humanized anti-human MASP-2 monoclonal antibody 100-Hu (antibody, human IgG4 S228P, kappa, V domains shown)
VH: QVQLVESGGGVVQPGGSLRLSCAASGFTFSNFGIHWVRQAPGKGLEWVAYISSGGSAVFYADTVKGRFTISRDNSKNTLYLQMNSLRAEDTAVYYCAKSDRYFDYWGQGTTVTVSS
VL: EIVLTQSPATLSLSPGERATLSCRASQSVSSSSYRYIHWYQQKPGQAPRLLIYYASNLESGIPARFSGSGSGTDFTLTISSLEPEDFAVYYCQHSWETPWTFGQGTKLEIKR
For the molecule B3, the “C4 cleavage IC50 (4% human serum)” value in experiment [2] is 281 pM.

B4: murine anti-human MASP-2 monoclonal antibody 100 (antibody, V domains shown)
VH: B3 VH with Q1D, V11L, L18R, R19K, G42E, Y80F, N84T, A88S, V93I, V112L
VL: DIVLTQSPASLAVSLGQRATISCRASQSVSSSSYRYIHWYQQKPGQPPRLLIKYASNLESGVPARFSGSGSGTDFTLNIHPVEEEDTATYYCQHSWETPWTFGGGTKLEIK
Turning to B4, the “IC50 of inhibition … (4% human serum, C4b ELISA)” value in experiment [1] came out at 238 pM.

B5: murine anti-human MASP-2 monoclonal antibody 136 (antibody, V domains shown)
VH: QVQLQQSGAELAKPGASVKMSCKASGNTFTNYWMHWIKQRPGQGLEWVGYINPNTGYTDFNQKFKDKATLTADKSSTTAYMQLISLTSEDSTVYYCTLQLGRNFDYWGQGTTLTVSS
VL: DIVLTQSPASLGVSLGQRATISCRASQSVSSSRSTYIHWYQQKPGQPPKLLIKYSSNLESGVPARFSGGGSGTDFTLNIHPVEAEDTATYYCHQSWEIPYTFGGGTKLEIR
As for B5, the “IC50 of inhibition … (4% human serum, C4b ELISA)” value in experiment [1] came out at 75.7 pM.

B6: murine anti-human MASP-2 monoclonal antibody 115 (antibody, V domains shown)
VH: DVQLVESGGGLVQPGGSRKLSCAASGFTFSSFGMHWVRQAPEKGLEWVAYISSGSSSFFYADTVKGRFTISRDNPKNTLFLQMTSLRSEDTAMYYCARGDRNFDVWGAGTTVTVSS
VL: B4 VL with S30T, S33R, R35S, I37M, Y40F, R49N, Y54H, E85D, T98V
B6: the “IC50 of inhibition … (4% human serum, C4b ELISA)” value in experiment [1] amounted to 82.6 pM.

B7: murine anti-human MASP-2 monoclonal antibody 126 (antibody, V domains shown)
VH: B6 VH with A23V, F58S, A61V, D104E
VL: B4 VL with S33R, R35S, I37M, Y40F, R49N, Y54H, H94Q, T98V
Consider B7, for which, in experiment [1], the “IC50 of inhibition … (4% human serum, C4b ELISA)” value was determined as 77.4 pM.

B8: humanized anti-human MASP-2 monoclonal antibody 126-Hu (antibody, human IgG4 S228P, kappa, V domains shown)
VH: QVQLVESGGGVVQPGRSLRLSCAASGFTFSSFGMHWVRQAPGKGLEWVAYISSGSSSSFYVDTVKGRFTISRDNSKNTLYLQMNSLRAEDTAVYYCARGDRNFEVWGQGTTVTVSS
VL: DIQMTQSPSSLSASVGDRVTITCRASQSVSSSRYSYMHWFQQKPGKAPKLLIYHASNLESGVPSRFSGSGSGTDFTLTISSLQPEDFATYYCQQSWEVPWTFGQGTKLEIKR
Take B8: in experiment [2], the “C4 cleavage IC50 (4% human serum)” value amounted to 59.8 pM. For the same molecule, in experiment [3], the “IC50 of inhibition of MASP-2-catalyzed C4 cleavage in 90% human serum” value came out at 3460 pM and the “IC50 of inhibition of MASP-2-mediated C3b production (4% C1q-removed human serum)” value was 494 pM.

B9: humanized anti-human MASP-2 monoclonal antibody 136-Hu (antibody, human IgG4 S228P, kappa, V domains shown)
VH: QVQLVQSGAEVKKPGASVKVSCKASGNTFTNYWMHWIRQAPGQGLEWMGYINPNTGYTDFNQKFKDRVTLTADKSTSTAYMELSSLRSEDTAVYYCTLQLGRNFDYWGQGTTVTVSS
VL: B8 VL with Y34S, S35T, M37I, F40Y, H54Y, A55S, Q93H, V98I, W100Y
Turning to B9, in experiment [2], the “C4 cleavage IC50 (4% human serum)” value is 311 pM.

B10: murine anti-human MASP-2 monoclonal antibody 124 (antibody, V domains shown)
VH: DVQLQESGPGLVKPSQSLSLTCTVTGYSITSDYAWNWIRQFPGNKLEWMGYISYSGRTSYNPSLKSRLSITRDTSKNQFFLQLTSVTTEDTATYYCARHYGDFWGQGTTLTVSS
VL: DIVMTQSQKFMSTSVGDRVSVTCKASQNVDTNVAWFQQKPGQSPKPLIYSASYRYSGVPDRFTGSGSGTDFTLTISNVQSEDLANYFCQQYNSYPSTFGSGTKLEIK
notes: as for B1
Take B10: the concentration giving a half-maximal response (EC50) with Fc-cyno-MASP-2-CCS was determined as 179 pM. In experiment [1], the “IC50 of inhibition … (4% human serum, C4b ELISA)” value was determined as 150 pM.

B11: humanized anti-human MASP-2 monoclonal antibody 124-Hu (antibody, human IgG4 S228P, kappa, V domains shown)
VH: QVQLQESGPGLVKPSQTLSLTCTVSGYSITSDYAWNWIRQPPGKGLEWMGYISYSGRTSYNPSLKSRLTISRDTSKNQFSLKLSSVTAADTAVYYCARHYGDFWGQGTTVTVSS
VL: DIQMTQSPSSLSASVGDRVTITCKASQNVDTNVAWYQQKPGKAPKLLIYSASYRYSGVPSRFSGSGSGTDFTLTISSLQPEDFATYYCQQYNSYPSTFGQGTKLEIKR
On to B11, for which the “C4 cleavage IC50 (4% human serum)” value in experiment [2] is 214 pM. Further, in experiment [3], the “IC50 of inhibition of MASP-2-catalyzed C4 cleavage in 90% human serum” value stood at 3750 pM and the “IC50 of inhibition of MASP-2-mediated C3b production (4% C1q-removed human serum)” value amounted to 1140 pM. In addition, in experiment [4], the “IC50 of inhibition of MASP-2-catalyzed C4 cleavage in 90% cynomolgus monkey serum” value turned out to be 168000 pM.
